Molecular target: receptor tyrosine kinase-like orphan receptor 1 (ROR1) (human) (UniProt Q01973)
Assay: flow cytometry (FSC against control stain) of PDX tumour cells stained with the control antibody, same ROR1+ gate

UniProt Q01973, sequence (Q01973 30-937): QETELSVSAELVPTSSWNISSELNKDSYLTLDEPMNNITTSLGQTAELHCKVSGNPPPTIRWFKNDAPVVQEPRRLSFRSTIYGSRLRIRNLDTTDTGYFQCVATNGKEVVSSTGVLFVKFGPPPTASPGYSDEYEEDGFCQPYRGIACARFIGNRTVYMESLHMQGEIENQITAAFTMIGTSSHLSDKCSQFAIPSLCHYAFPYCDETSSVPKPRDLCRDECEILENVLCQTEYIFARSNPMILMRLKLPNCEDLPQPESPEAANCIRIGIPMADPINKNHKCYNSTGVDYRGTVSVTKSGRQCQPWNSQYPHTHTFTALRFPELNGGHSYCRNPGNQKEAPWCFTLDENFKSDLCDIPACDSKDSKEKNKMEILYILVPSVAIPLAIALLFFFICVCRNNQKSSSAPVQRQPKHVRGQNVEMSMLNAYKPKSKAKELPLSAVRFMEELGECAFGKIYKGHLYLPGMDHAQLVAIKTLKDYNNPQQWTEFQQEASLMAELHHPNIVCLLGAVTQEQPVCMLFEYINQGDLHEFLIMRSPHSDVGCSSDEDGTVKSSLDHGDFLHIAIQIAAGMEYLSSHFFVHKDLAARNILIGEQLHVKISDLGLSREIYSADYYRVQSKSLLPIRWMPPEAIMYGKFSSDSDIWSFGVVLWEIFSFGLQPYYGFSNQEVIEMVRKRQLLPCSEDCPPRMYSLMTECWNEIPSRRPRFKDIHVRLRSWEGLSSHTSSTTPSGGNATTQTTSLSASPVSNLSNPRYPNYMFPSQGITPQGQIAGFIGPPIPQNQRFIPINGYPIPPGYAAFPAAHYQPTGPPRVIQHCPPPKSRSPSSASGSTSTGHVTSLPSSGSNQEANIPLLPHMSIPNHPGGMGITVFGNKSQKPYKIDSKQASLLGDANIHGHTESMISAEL

Control (antibody)
% of cells in the ROR1+ gate: 0.7%
